Target: human methemoglobin (metHb) (human, UniProt P69905;P68871)
Test: SEC

Sequence of human methemoglobin (metHb) (P69905 whole entry, chain 1 of 2): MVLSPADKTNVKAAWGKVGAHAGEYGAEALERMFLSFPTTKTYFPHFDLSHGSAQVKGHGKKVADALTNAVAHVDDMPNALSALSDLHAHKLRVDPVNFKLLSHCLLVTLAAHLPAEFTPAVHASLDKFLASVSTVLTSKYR
Sequence of human methemoglobin (metHb) (P68871 whole entry, chain 2 of 2): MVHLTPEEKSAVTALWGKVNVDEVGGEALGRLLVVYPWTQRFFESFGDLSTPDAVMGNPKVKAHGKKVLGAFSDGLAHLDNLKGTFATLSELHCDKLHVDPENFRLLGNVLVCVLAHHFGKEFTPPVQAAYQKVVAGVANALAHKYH

B1: IsdB^N1-L, IsdB residues Leu125-Asn339 (NEAT 1 domain with the linker) (domain or fragment)
chain: LNQELREAIKNPAIKDKDHSAPNSRPIDFEMKKKDGTQQFYHYASSVKPARVIFTDSKPEIELGLQSGQFWRKFEVYEGDKKLPIKLVSYDTVKDYAYIRFSVSNGTKAVKIVSSTHFNNKEEKYDYTLMEFAQPIYNSADKFKTEEDYKAEKLLAPYKKAKTLERQVYELNKIQDKLPEKLKAEYKKKLEDTKKALDEQVKSAITEFQNVQPTN
In the case of B1, the “stoichiometry N” value is reported as less than 1 IsdB^N1-L per metHb.

B2: IsdH NEAT1 (IsdH^N1), residues Ala86-Leu229 (domain or fragment)
chain: ADESLKDAIKDPALENKEHDIGPREQVNFQLLDKNNETQYYHFFSIKDPADVYYTKKKAEVELDINTASTWKKFEVYENNQKLPVRLVSYSPVPEDHAYIRFPVSDGTQELKIVSSTQIDDGEETNYDYTKLVFAKPIYNDPSL
B2 was tested, and the “stoichiometry N” value was 1 IsdH NEAT domain per metHb (alpha/beta dimer).

B3: IsdH NEAT2 (IsdH^N2), residues Gln321-Asn464 (domain or fragment)
chain: QQYPPADESLQDAIKNPAIIDKEHTADNWRPIDFQMKNDKGERQFYHYASTVEPATVIFTKTGPIIELGLKTASTWKKFEVYEGDKKLPVELVSYDSDKDYAYIRFPVSNGTREVKIVSSIEYGENIHEDYDYTLMVFAQPITN
B3 was tested, and the “stoichiometry N” value was 1 IsdH NEAT domain per metHb (alpha/beta dimer).

From publication PMC4072347 (Biochemistry, 2014)
